Laboratory results from patent publication US20180282372.

What was measured:
[1] = system: T1, Aktide biosensor RRRRRSVDSHGGKbiotinGG (SEQ ID NO:11)
T1 sequence: RRRRRSVDSHGGKGG

[2] = molecular target: T2, candidate biosensor peptide substrate WHLQTWCGYGGKbiotinGG (SEQ ID NO:12)
T2 chain: WHLQTWCGYGGKGG

[3] = molecular target: the other five peptides (of six candidate biosensors peptides screened with LKB1)

“Akt serine/threonine kinase (protein kinase B)” was tested. Which “phosphorylation of the peptide in a time-course in vitro kinase assay (MALDI/TOF/TOF-MS; 0, 30, 60, 120 min)” value [1] did it give?
The value was “Nearly complete conversion to phosphorylated product was observed after 2 hr”.

What about the “phosphorylation of the peptide in an in vitro kinase assay (MALDI/TOF/TOF-MS)” value [1] of the same molecule?
Its value is “this peptide sequence is able to be efficiently phosphorylated by Akt over a 2 hr kinase assay”.

B1: LKB1 serine/threonine kinase (Liver Kinase B1) (protein)
chain: MEVVDPQQLGMFTEGELMSVGMDTFIHRIDSTEVIYQPRRKRAKLIGKYLMGDLLGEGSYGKVKEVLDSETLCRRAVKILKKKKLRRIPNGEANVKKEIQLLRRLRHKNVIQLVDVLYNEEKQKMYMVMEYCVCGMQEMLDSVPEKRFPVCQAHGYFCQLIDGLEYLHSQGIVHKDIKPGNLLLTTGGTLKISDLGVAEALHPFAADDTCRTSQGSPAFQPPEIANGLDTFSGFKVDIWSAGVTLYNITTGLYPFEGDNIYKLFENIGKGSYAIPGDCGPPLSDLLKGMLEYEPAKRFSIRQIRQHSWFRKKHPPAEAPVPIPPSPDTKDRWRSMTVVPYLEDLHGADEDEDLFDIEDDIIYTQDFTVPGQVPEEEASHNGQRRGLPKAVCMNGTEAAQLSTKSRAEGRAPNPARKACSASSKIRRLSACKQQ
How did the “phosphorylation of the peptide in an in vitro kinase assay (LC ESI-MS)” value [2] turn out when B1 was run?
The value was “this initial peptide sequence is able to be partially phosphorylated by LKB1 after a 3 hr reaction”.

What about the “phosphorylation of the peptide in an in vitro kinase assay screen with LKB1” value [3] of the same molecule?
Its value is “Out of these six, one sequence, WHLQTWCGYGGKbiotinGG (SEQ ID NO:12), was shown to be partially phosphorylated by LKB1 after a 3 hr reaction”.
